Key:
[1] = molecular target: SP34-binding peptide 15253; test: flow cytometry on peptide-displaying E. coli, 1 nM SP34-dylight-488 with 100 nM isotype control, normalised to peptide expression (yPet-Mona)
[2] = molecular target: SP34-binding peptide 15253; test: flow cytometry on peptide-displaying E. coli, 10 nM SP34-dylight-488 with 100 nM isotype control, normalised to peptide expression (yPet-Mona)
[3] = molecular target: SP34-binding peptide 15253; test: flow cytometry on peptide-displaying E. coli, 0.1 nM SP34-dylight-488 with 100 nM isotype control, normalised to peptide expression (yPet-Mona)
[4] = molecular target: SP34-binding peptide 15253; test: flow cytometry on peptide-displaying E. coli, 100 nM SP34-dylight-488 with 100 nM isotype control, normalised to peptide expression (yPet-Mona)
[5] = molecular target: SP34-binding peptide 15253; test: flow cytometry on peptide-displaying E. coli, 1 nM SP34-dylight-488 with 100 nM free human CD3ε as competitor, normalised to peptide expression (yPet-Mona)

B1: Anti-CD3ε antibody SP34 (antibody, V domains shown)
VH: EVQLVESGGGLVQPKGSLKLSCAASGFTFNTYAMNWVRQAPGKGLEWVARIRSKYNNYATYYADSVKDRFTISRDDSQSILYLQMNNLKTEDTAMYYCVRHGNFGNSYVSWFAYWGQGTLVTVSA
VL: QAVVTQESALTTSPGETVTLTCRSSTGAVTTSNYANWVQEKPDHLFTGLIGGTNKRAPGVPARFSGSLIGDKAALTITGAQTEDEAIYFCALWYSNLWVFGGGTKLTVL
B1 gave an expression normalized binding [1] of 0.68, an expression normalized binding [2] of 0.98 and an expression normalized binding [3] of 0.55. For the same binder, the expression normalized binding [4] was 2.53 and the expression normalized binding [5] was 0.53.
